Data as given in patent US20210347868A1 (published 2021).
Read-outs that look alike come from different tables or passages of the source.

Experiments:
full-length synuclein [1] = assay: ITC
full-length synuclein [2] = assay: ITC; remark: listed apart in the source

Kd (full-length synuclein [1]) [nM]	Kd (full-length synuclein [2]) [nM]	Binder
300	–	Asyn-338.1 (antibody, V domains shown) VH: QVQLVESGGDIVQPGGSLKLSCAASGFTFKSYWMHWVRQVPGKGLFWVSRINTFGNKTSYADSVRGRFSISRDNTKSILYLQMNSLKAEDTAVYYCARSTLGSFDYWGQGTLVTVSS VL: AIQLTQSPDSLAVSLGERATINCKASQSLLYSSNNRNYLAWYQQKPGQPPKALIYWASTRESGVPDRFSGSGSGTDFTLTISSLQAEDVAVYYCHQYYTTHSFGQGTKLEIK
1400	–	Asyn-336.1 (antibody, V domains shown) VH: EVQLVQSGGTLVQPGGSLRLSCAASGFTFSTYAISWVRQAPGRGLEWVSFITGDGSRILYADSVRGRFSISRDNSKNTLYLQMNSLRTDDTAMYYCVFNHYWGQGTLVTVSS VL: AIQLTQSPDSLAVSLGERATINCKASQSLLYSSNNRNYLAWYQQKPGQPPKALIYWASTRESGVPDRFSGSGSGTDFTLTISSLQAEDVAVYYCHQYYTTHSFGQGTKLEIK
–	2800	Asyn-323.1 (antibody, V domains shown) VH: EVQLLESGGGLVQPGGSLKLSCAASGFTFSASAMHWVRQTSDKRLEWVGRIRNKANNYATAYAASVKGRFTISRDDSKNTAYLQMNSLKTEDTAVYYCTRHLSLGGNSVDYWGQGTPVTVSS VL: DVVMTQSPLSSPVTLGQPASISCRASQSPVHSDGNTYLSWLQQRPGQPPRLLIYTISNRFPGVPDRFSGSGAGTDFTLRISRVEAEDVGVYYCMQGTQFPYTFGQGTKLEIK
